# B1: IRF5-CPP1 (peptide)
# peptide: Ac-IRLQISNPYLKFIPLKRAIWLIK-NH2
# Experiments:
# IRF5 [1] = target: T1, IRF5 (Homo sapiens, UniProt Q13568); format: cell-based
# endogenous IRF5 = endogenous IRF5 (Homo sapiens, UniProt Q13568); format: cell-based
# IRF5 [2] = target: T1, IRF5; format: cell-based; remark: listed apart in the source
# IRF5 [3] = target: T1, IRF5; format: cell-based; remark: listed apart in the source
# [4] = target: wild-type (WT) IRF5, tagged with either His or biotin at the C terminus (human); experiment: FRET or BRET
# [5] = target: IRF5 [change], tagged with either His or biotin (human); experiment: FRET or BRET
Molecule,effect on R848-induced IRF5 homodimerization (IRF5 [1]),in-cell FRET signal with TRITC-IRF5 (endogenous IRF5),inhibition of R848-induced IRF5 nuclear translocation in CD14+ monocytes (IRF5 [2]),inhibition of R848-induced IRF5 nuclear translocation in CD19+ B cells (IRF5 [3]),Kd [4] [µM],IC50 [5] [µM]
Ac-IKVMWPILFIIKLVHSDKKI-NH2 [IRF5-CPP8],Neither of these two peptides inhibited,minimal FRET signal,neither peptide provided IRF5-specific inhibition,neither peptide provided IRF5-specific inhibition,–,–
IRF5-CPP9: Negative control for IRF5-CPP5; lacks the IRF5-specific sequences (MANLGYWLLALFVTMWTDVGLCKKRPKP),Neither of these two peptides inhibited,minimal FRET signal,neither peptide provided IRF5-specific inhibition,neither peptide provided IRF5-specific inhibition,–,–
"wild-type (WT) IRF5, tagged with either His or biotin at the C terminus (natural protein)",–,–,–,–,4.21,–
B1,–,–,–,–,–,> 75

# — paper PMC7228753 (Science Advances, 2020)
